Some results are limits rather than exact numbers.

This experiment has as its target membrane IgE C2C4 expressed on Ramos cells (in the presence of Ig-alpha and Ig-beta) (human) (UniProt P01854). The experiment in a line: flow cytometry, MFI on C2C4-expressing Ramos cells divided by MFI on non-induced cells.

Take “positive control mAB anti-IgE Le27 (antibody)”: the MFI ratio is above 5. For “Negative controls (right sample block, starting with no primary AB)” the value was 1; for “positive control mAB anti-IgE BSW17 (antibody)”, above 5.
